B1: Retinoblastoma-associated protein (Homo sapiens), P06400 (parent)
chain: MPPKTPRKTAATAAAAAAEPPAPPPPPPPEEDPEQDSGPEDLPLVRLEFEETEEPDFTALCQKLKIPDHVRERAWLTWEKVSSVDGVLGGYIQKKKELWGICIFIAAVDLDEMSFTFTELQKNIEISVHKFFNLLKEIDTSTKVDNAMSRLLKKYDVLFALFSKLERTCELIYLTQPSSSISTEINSALVLKVSWITFLLAKGEVLQMEDDLVISFQLMLCVLDYFIKLSPPMLLKEPYKTAVIPINGSPRTPRRGQNRSARIAKQLENDTRIIEVLCKEHECNIDEVKNVYFKNFIPFMNSLGLVTSNGLPEVENLSKRYEEIYLKNKDLDARLFLDHDKTLQTDSIDSFETQRTPRKSNLDEEVNVIPPHTPVRTVMNTIQQLMMILNSASDQPSENLISYFNNCTVNPKESILKRVKDIGYIFKEKFAKAVGQGCVEIGSQRYKLGVRLYYRVMESMLKSEEERLSIQNFSKLLNDNIFHMSLLACALEVVMATYSRSTSQNLDSGTDLSFPWILNVLNLKAFDFYKVIESFIKAEGNLTREMIKHLERCEHRIMESLAWLSDSPLFDLIKQSKDREGPTDHLESACPLNLPLQNNHTAADMYLSPVRSPKKKGSTTRVNSTANAETQATSAFQTQKPLKSTSLSLFYKKVYRLAYLRLNTLCERLLSEHPELEHIIWTLFQHTLQNEYELMRDRHLDQIMMCSMYGICKVKNIDLKFKIIVTAYKDLPHAVQETFKRVLIKEEEYDSIIVFYNSVFMQRLKTNILQYASTRPPTLSPIPHIPRSPYKFPSSPLRIPGGNIYISPLKSPYKISEGLPTPTKMTPRSRILVSIGESFGTSEKFQKINQMVCNSDRVLKRSAEGSNPPKPLKKLRFDIEGSDEADGSKHLPGESKFQQKLAEMTSTRTRMQKQKMNDSMDTSNKEEK

How the values were obtained:
e2f1_human E2F1, Q01094 [1] = variants of: B1; conditions: with e2f1_human E2F1, Q01094
Chain of e2f1_human E2F1, Q01094 (Q01094 whole entry): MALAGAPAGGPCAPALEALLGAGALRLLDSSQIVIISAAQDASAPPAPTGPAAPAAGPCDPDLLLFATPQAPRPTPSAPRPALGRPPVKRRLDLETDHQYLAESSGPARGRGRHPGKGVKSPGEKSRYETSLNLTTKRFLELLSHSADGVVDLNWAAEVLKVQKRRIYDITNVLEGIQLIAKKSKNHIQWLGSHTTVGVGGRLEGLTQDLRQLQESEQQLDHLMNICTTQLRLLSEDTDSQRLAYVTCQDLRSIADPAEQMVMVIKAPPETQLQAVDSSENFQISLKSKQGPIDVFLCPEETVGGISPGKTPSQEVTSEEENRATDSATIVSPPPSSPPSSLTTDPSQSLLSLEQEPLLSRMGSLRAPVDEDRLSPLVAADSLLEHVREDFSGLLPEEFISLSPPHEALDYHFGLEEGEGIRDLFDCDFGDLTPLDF

ve7_hpv16 E7, P03129 [2] = variants of: B1; conditions: with ve7_hpv16 E7, P03129
Chain of ve7_hpv16 E7, P03129 (P03129 whole entry): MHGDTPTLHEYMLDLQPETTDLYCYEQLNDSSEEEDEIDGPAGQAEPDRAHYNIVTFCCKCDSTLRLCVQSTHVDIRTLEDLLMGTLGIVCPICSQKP

e2f1_human E2F1, Q01094 [3] = variants of: B1; conditions: with e2f1_human E2F1, Q01094; remark: listed apart in the source
ve7_hpv16 E7, P03129 [4] = variants of: B1; conditions: with ve7_hpv16 E7, P03129; remark: listed apart in the source

Variant | effect of a mutation on the interaction (e2f1_human E2F1, Q01094 [1]) | effect of a mutation on the interaction (ve7_hpv16 E7, P03129 [2]) | effect of a mutation on the interaction (e2f1_human E2F1, Q01094 [3]) | effect of a mutation on the interaction (ve7_hpv16 E7, P03129 [4])
S474N | decreasing interaction strength | decreasing interaction strength |  | 
S463L | decreasing interaction strength | decreasing interaction strength |  | 
D697E | decreasing interaction strength | decreasing interaction strength | disrupting interaction strength | 
A488V | decreasing interaction strength | decreasing interaction strength |  | 
R763T | decreasing interaction strength | decreasing interaction strength |  | 
R656Q | disrupting interaction strength | decreasing interaction strength |  | 
D584Y | decreasing interaction strength | decreasing interaction strength |  | 
R741C | decreasing interaction strength | decreasing interaction strength |  | 
R668C | increasing interaction strength | increasing interaction strength | decreasing interaction strength | decreasing interaction strength
R556Q | decreasing interaction strength | with no effect |  | decreasing interaction strength
P595L | decreasing interaction strength | decreasing interaction strength |  | 
Q444R | decreasing interaction strength | decreasing interaction strength |  | 
E533K | disrupting interaction strength | decreasing interaction strength |  | 
D604G | decreasing interaction strength | decreasing interaction strength |  | 
S671F | decreasing interaction strength | decreasing interaction strength |  | 
H673P | decreasing interaction strength | decreasing interaction strength | disrupting interaction strength | 

Variant | effect of a mutation on the interaction (e2f1_human E2F1, Q01094 [1]) | effect of a mutation on the interaction (ve7_hpv16 E7, P03129 [2]) | effect of a mutation on the interaction (e2f1_human E2F1, Q01094 [3]) | effect of a mutation on the interaction (ve7_hpv16 E7, P03129 [4])
T687I | decreasing interaction strength | decreasing interaction strength |  | 
K462T | decreasing interaction strength | decreasing interaction strength |  | 
R611S | decreasing interaction strength | with no effect |  | decreasing interaction strength
E492Q | decreasing interaction strength | decreasing interaction strength |  | 
A490V | decreasing interaction strength | decreasing interaction strength |  | 
A490T | decreasing interaction strength | decreasing interaction strength | disrupting interaction strength | 
R621H | decreasing interaction strength | decreasing interaction strength |  | 
H585Y | decreasing interaction strength | decreasing interaction strength |  | 
E554K | disrupting interaction strength | decreasing interaction strength |  | 
A525G | decreasing interaction strength | decreasing interaction strength |  | 
R451S | decreasing interaction strength | decreasing interaction strength |  | 
R451H | decreasing interaction strength | decreasing interaction strength |  | 
L572I | decreasing interaction strength | increasing interaction strength |  | decreasing interaction strength
Q504E | decreasing interaction strength | with no effect |  | decreasing interaction strength
T638S | with no effect | decreasing interaction strength | decreasing interaction strength | 
